Source: patent publication US20140220589

Target: T1, H11 peptide FLVMFLSG (SEQ. ID. NO.: 1) (not fully specified)
T1 chain: FLVMFLSG

B1: streptococcal pyogenix exotoxin B (SpeB) (protein)
chain: QPVVKSLLDSKGIHYNQGNPYNLLTPVIEKVKPGEQSFVGQHAATGCVATATAQIMKYHNYPNKGLKDYTYTLSSNNPYFNHPKNLFAAISTRQYNWNNILPTYSGRESNVQKMAISELMADVGISVDMDYGPSSGSAGSSRVQRALKENFGYNQSVHQINRGDFSKQDWEAQIDKELSQNQPVYYQGVGKVGGHAFVIDGADGRNFYHVNWGWGGVSDGFFRLDALNPSALGTGGGAGGFNGYQSAVVGIKP
proteolytic activity in a microplate assay (rate of color development, mOD/min); lower limit of detection: The lower limit of detection was 100 pg of purified SpeB
